Where two headings read alike, the source gives them in different places.
What was measured:
[1] = biological target: T1, endogenous TL1A of stimulated human peripheral blood (human, UniProt O95150 72-251, limits assumed); assay: cell-based or functional assay
T1 sequence (looked up): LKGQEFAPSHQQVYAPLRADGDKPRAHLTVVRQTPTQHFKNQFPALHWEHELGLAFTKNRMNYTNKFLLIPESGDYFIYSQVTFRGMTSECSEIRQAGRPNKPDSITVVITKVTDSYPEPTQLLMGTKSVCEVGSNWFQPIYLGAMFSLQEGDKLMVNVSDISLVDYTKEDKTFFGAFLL

[2] = biological target: T2, recombinant soluble cynomolgus monkey TL1A (cynomolgus monkey, UniProt O95150 72-251 (human entry)); assay: KinExA, equilibrium in solution
T2 construct: also called cyno rsTL1A; cyno TL1A
T2 chain: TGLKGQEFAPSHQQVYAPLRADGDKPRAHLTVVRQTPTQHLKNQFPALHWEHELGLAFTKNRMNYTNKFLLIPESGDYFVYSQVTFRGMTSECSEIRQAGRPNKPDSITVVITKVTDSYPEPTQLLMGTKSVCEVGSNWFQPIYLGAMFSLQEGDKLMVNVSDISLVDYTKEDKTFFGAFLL
Experimental: (§1) This assay involves pre-incubating antibody: antigen mixtures in solution long enough to reach equilibrium before measuring the level of unbound antibody using a solid phase component. […] Beads were blocked for 1 hour with PBS plus 10 mg/ml bovine serum albumin (bovine serum albumin, Sigma) at room temperature before being diluted up to a total of 27 ml in PBS. […] For each titration series, a buffer sample and a sample of antibody alone were included. Each antibody: TL1A mixture was tumbled at room temperature for at least six hours to reach equilibrium and then each mixture was injected over the solid phase of TL1A-coated beads in the instrument flow cell. […] Beads were replenished between each sample. Binding signals of detected free antibody were converted to percentage of free, unbound antibody as measured by the antibody only sample and plotted versus each concentration of TL1A. For each antibody, the KD and ABC controlled curves were fit simultaneously using n-Curve Analysis software v3.1.4 to fit the curves to the ‘affinity, unknown ligand’ model and measure an equilibrium KD.
(§2) Solution-based kinetic exclusion assays (KinExA) were carried out as an orthogonal technique to measure equilibrium KD values.

[3] = biological target: T3, recombinant soluble murine TL1A (mouse, UniProt Q5UBV8 75-252); assay: KinExA, equilibrium in solution
T3 construct: also called murine rsTL1A; mouse TL1A
T3 chain: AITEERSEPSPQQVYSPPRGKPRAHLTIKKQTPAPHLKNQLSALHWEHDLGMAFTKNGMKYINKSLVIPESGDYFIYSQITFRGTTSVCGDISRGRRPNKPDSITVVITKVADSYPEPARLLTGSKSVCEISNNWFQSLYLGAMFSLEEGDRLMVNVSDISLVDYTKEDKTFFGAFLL
Experimental: as §1, §2

[4] = biological target: T2, recombinant soluble cynomolgus monkey …; assay: SPR, IgG captured on anti-hIgG, TL1A injected;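 for t1/2: biacore surface plasmon resonance on a dextran sensor chip, double-referenced sensorgrams fitted to a one-to-one binding model, KD taken as dissociation over association rate constant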
Text: To characterize the binding kinetics of the anti-TL1A antibodies to TL1A by surface plasmon resonance, each anti-TL1A antibody was captured via directly immobilized anti-human IgG (GE Healthcare) onto a carboxymethylated dextran sensor chip surface (CM5) using a Biacore T100 or T200 instrument. Anti-human IgG was immobilized through amine coupling to densities of approximately 4,000-13,000 response units (RU). […] At the end of each cycle, the entire anti-human IgG (hIgG) surface was regenerated by a 30-second pulse of 3M MgCl₂ followed by two consecutive 15-second pulses of PBS-NET. All injections were performed at 25° C. at a collection rate of 10 Hz. All sensorgrams were double referenced by using both a control surface and buffer injections. Rate constants were determined by fitting the data to a 1:1 model in Biacore T100, T200 evaluation software v1.0, or BIAevaluation software v4.1.1 and the equation KD=kd/kₐ.
The anti-TL1A antibodies were captured onto immobilized anti-human Fc on a CM5 sensor chip on a Biacore T100 instrument. […] Rate constants shown in the table were determined by fitting to a 1:1 Langmuir binding model in BiaEvaluation v4.1.1 (fit lines shown in red). Data shown are the average and standard deviation of at least 3 independent surfaces between 2 experiments.

[5] = biological target: T2, recombinant soluble cynomolgus monkey …; assay: SPR, IgG captured on anti-hIgG, TL1A injected;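 for t1/2: biacore surface plasmon resonance on a dextran sensor chip, double-referenced sensorgrams fitted to a one-to-one binding model, KD taken as dissociation over association rate constant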
[6] = biological target: T3, recombinant soluble murine TL1A; assay: SPR, IgG captured on anti-hIgG, TL1A injected;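 for koff: biacore measurement on a carboxymethylated dextran chip, double-referenced against a control surface and buffer, rates fitted to a one-to-one binding model, KD from koff over kon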;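 for kon: biacore measurement on a carboxymethylated dextran chip, double-referenced against a control surface and buffer, rates fitted to a one-to-one binding model, KD from koff over kon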
[7] = biological target: T2, recombinant soluble cynomolgus monkey …; assay: SPR, IgG captured on anti-hIgG, TL1A injected;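 for t1/2: biacore surface plasmon resonance on a dextran sensor chip, double-referenced sensorgrams fitted to a one-to-one binding model, KD taken as dissociation over association rate constant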
Text: (§3) The antibodies were captured via directly immobilized anti-human IgG (GE Healthcare) onto a carboxymethylated dextran sensor chip surface (CM5) using a Biacore T100 or T200 instrument. Anti-human IgG was immobilized through amine coupling to densities of approximately 4,000-13,000 response units (RU). […] At the end of each cycle, the entire anti-hIgG surface was regenerated by a 30-second pulse of 3M MgCl₂ followed by two consecutive 15-second pulses of PBS-NET. […] All injections were performed at 25° C. at a collection rate of 10 Hz. All sensorgrams were double referenced by using both a control surface and buffer injections. Rate constants were determined by fitting the data to a 1:1 model in Biacore T100, T200 evaluation software v1.0, or BIAevaluation software v4.1.1 and the equation KD=Kd/kₐ.
(§4) At the highest cytokine concentrations, the dissociation phase was sometimes extended to 60 minutes to achieve at least a 5% decrease in binding signal.

[8] = biological target: T3, recombinant soluble murine TL1A; assay: SPR, IgG captured on anti-hIgG, TL1A injected;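 for koff: biacore measurement on a carboxymethylated dextran chip, double-referenced against a control surface and buffer, rates fitted to a one-to-one binding model, KD from koff over kon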;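 for kon: biacore measurement on a carboxymethylated dextran chip, double-referenced against a control surface and buffer, rates fitted to a one-to-one binding model, KD from koff over kon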
Text: as §3, §4

[9] = biological target: T4, recombinant soluble rat TL1A (rat, UniProt Q8K3Y7 76-252); assay: SPR, IgG captured on anti-hIgG, TL1A injected
T4 construct: also called rat rsTL1A
T4 sequence: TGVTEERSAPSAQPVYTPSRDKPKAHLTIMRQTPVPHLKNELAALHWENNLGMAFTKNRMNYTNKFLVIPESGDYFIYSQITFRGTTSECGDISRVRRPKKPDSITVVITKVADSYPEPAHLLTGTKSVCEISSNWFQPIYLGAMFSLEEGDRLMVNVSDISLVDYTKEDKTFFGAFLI

[10] = biological target: T5, recombinant soluble rabbit TL1A (rabbit); assay: SPR, IgG captured on anti-hIgG, TL1A injected
T5 construct: also called rabbit rsTL1A
T5 chain: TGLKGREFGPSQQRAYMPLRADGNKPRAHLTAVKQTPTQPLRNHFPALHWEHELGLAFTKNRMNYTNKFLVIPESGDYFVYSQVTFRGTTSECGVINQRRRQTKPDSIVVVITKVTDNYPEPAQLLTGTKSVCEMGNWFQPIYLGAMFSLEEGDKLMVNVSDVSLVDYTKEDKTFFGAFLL
Text: as §3, §4

HWB Assay, average IC50 [1]: 0.248 nM
Kd [2]: 0.384 nM
Kd [3]: 0.383 nM
Kd [4]: 7 nM
koff [4]: 0.0041 s⁻¹
kon [4]: 600000 M⁻¹ s⁻¹
Kd [5]: 1.67 nM
Kd [6]: 1.32 nM
Kd [7]: 6.69 nM
koff [7]: 0.0041 s⁻¹
kon [7]: 600000 M⁻¹ s⁻¹
t1/2 [7]: 2.82 min
Kd [8]: 7.29 nM
koff [8]: 0.0036 s⁻¹
kon [8]: 490000 M⁻¹ s⁻¹
t1/2 [8]: 3.25 min
Kd [9]: 8.14 nM
koff [9]: 0.0134 s⁻¹
kon [9]: 1.71e+06 M⁻¹ s⁻¹
t1/2 [9]: 0.867 min
Kd [10]: 1.31 nM
koff [10]: 0.00079 s⁻¹
kon [10]: 610000 M⁻¹ s⁻¹
t1/2 [10]: 14.6 min
B1: anti-TL1A antibody 1D1 (antibody, human IgG1, kappa, V domains shown)
VH: QVQLVQSGAEVKKPGASVKVSCKASGYSFTYYGISWVRQAPGQGLEWMGWISTYNGNTNYARMLQGRVTMTTDTSTRTAYMELRSLRSDDTAVYYCARENYYGSGSYRGGMDVWGQGTTVTVSS
VL: EIVLTQSPATLSLSPGERATLSCRASQSVSSYLAWYQQKPGQAPRLLIYDASNRATGIPARFSGSGSGTDFTLTISSLEPEDFAVYYCQQRSNWPWTFGQGTKVEIKR
notes: Human IgG1 with effector-null triple mutation (hIgG1-3m), kappa; The first binning was done with the antibodies from the hybridoma screen; also called 1D1 parental; Parental 1D1
